Data as given in patent US20110223107A1 (ALETHIA BIOTHERAPEUTICS, published 2011).

Key:
[1] = biological target: T1, recombinant Fc-KAAG1 fusion protein (full-length KAAG1) (human, UniProt Q9UBP8 1-84, biotinylated with NHS-biotin (sites not given)); assay: ELISA on recombinant Fc-KAAG1
T1 construct: also called recombinant human KAAG1; not shown: human Fc domain encoded by expression plasmid pYD5; vector-encoded residues between the Fc and the BamHI cloning site of pYD5
T1 sequence: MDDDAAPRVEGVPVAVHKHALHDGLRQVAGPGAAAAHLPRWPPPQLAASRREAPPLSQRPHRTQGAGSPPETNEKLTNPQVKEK
Experimental: The 96-well master plate of monoclonal preparations contained different concentrations of purified anti-KAAG1 Fabs in each well. A second stock master plate was prepared by diluting the Fabs to a final concentration of 10 μg/ml from which all subsequent dilutions were performed for ELISA measurements. To carry out the binding of Fc-KAAG1 to the monoclonal preparations, the Fc-KAAG1 was biotinylated with NHS-biotin (Pierce, Rockford, Ill.) and 10 ng/well was coated in a streptavidin 96-well plate. One nanogram of each Fab monoclonal preparation was added to each well and incubated at room temperature for 30 minutes. Bound antibody was detected with HRP-conjugated mouse anti-kappa light chain antibody in the presence of TMB liquid substrate (Sigma-Aldrich Canada Ltd., Oakville, ON) and readings were conducted at 450 nm in microtiter plate reader.
Since an antibody harboring effector functions was required, the h3D3 was assembled as a human IgG₁. ELISA-based assays were performed to directly compare the ability of the h3D3 […]. The methods used to perform these tests were as described in Example 3 using recombinant Fc-KAAG1.

[2] = biological target: T2, monomeric recombinant KAAG1 (Homo sapiens (Human), UniProt Q9UBP8 1-84, limits assumed); assay: SPR (Biacore), antibody captured by anti-human Fc, 1:1 fit
T2 construct: Analyte of the Biacore experiment
T2 sequence: T1 sequence
Experimental: (§1) More precise measurements were conducted using Surface Plasmon Resonance (SPR) in a Biacore instrument. Kinetic analysis was used to compare the affinity of the chimeric 3D3 with the h3D3 as well as with hybrid antibodies encompassing different permutations of the light and heavy chains (see FIG. 18B). Briefly, anti-human Fc was immobilized on the Biacore sensor chip and chimeric or h3D3 was captured on the chip. Different concentrations of monomeric recombinant KAAG1 were injected and the data were globally fitted to a simple 1:1 model to determine the kinetic parameters of the interaction.

[3] = biological target: T2, monomeric recombinant KAAG1; assay: SPR (Biacore): antibody captured on immobilised anti-human Fc, monomeric recombinant KAAG1 injected, global 1:1 fit; average KD; humanized light + humanized heavy chain, 'HH'
Experimental: as §1

[4] = biological target: T2, monomeric recombinant KAAG1; assay: SPR (Biacore): antibody captured on immobilised anti-human Fc, monomeric recombinant KAAG1 injected, global 1:1 fit; average KD; humanized light + chimeric heavy chain, 'HC'
Experimental: as §1

[5] = biological target: T2, monomeric recombinant KAAG1; assay: SPR (Biacore): antibody captured on immobilised anti-human Fc, monomeric recombinant KAAG1 injected, global 1:1 fit; average KD; chimeric light + humanized heavy chain, 'CH'
Experimental: as §1

B1: humanized 3D3 anti-KAAG1 antibody (human IgG1) (antibody, V domains shown)
VH: EVQLVQSGAEVKKPGASVKVSCKASGYIFTDYEIHWVRQAPGQGLEWMGVIDPETGNTAFNQKFKGRVTITADTSTSTAYMELSSLTSEDTAVYYCMGYSDYWGQGTLVTVSS
VL: DIVMTQSPDSLAVSLGERATINCKSSQSLLNSNFQKNFLAWYQQKPGQPPKLLIYFASTRESSVPDRFSGSGSGTDFTLTISSLQAEDVAVYYCQQHYSTPLTFGQGTKLEIKR
notes: The leader residues before them are left out; also called h3D3; HH
[1]
  EC50 (read off the curve): ~0.1 µg/mL
[2]
  Ka: 2.28e+09 M⁻¹
  koff: 0.00111 s⁻¹
  kon: 2.53e+06 M⁻¹ s⁻¹
[3]
  Kd: 0.439 nM

B2: 3D3 hybrid antibody: humanized light chain expressed with the chimeric heavy chain (antibody, V domains shown)
VH: EVQLQQSVAELVRPGASVTLSCKASGYIFTDYEIHWVKQTPVHGLEWIGVIDPETGNTAFNQKFKGKATLTADISSSTAYMELSSLTSEDSAVYYCMGYSDYWGQGTTLTVSS
VL: B1 VL
notes: also called HC
[2]
  Ka: 3.24e+09 M⁻¹
  koff: 0.00073 s⁻¹
  kon: 2.36e+06 M⁻¹ s⁻¹
[4]
  Kd: 0.309 nM

B3: 3D3 hybrid antibody: chimeric light chain expressed with the humanized heavy chain (antibody, human IgG1, V domains shown)
VH: B1 VH
VL: DIVMTQSPSSLAVSIGQKVTMNCKSSQSLLNSNFQKNFLAWYQQKPGQSPKLLIYFASTRESSIPDRFIGSGSGTDFTLTISSVQAEDLADYFCQQHYSTPLTFGAGTKLELKA
[2]
  Ka: 1.98e+09 M⁻¹
  koff: 0.00111 s⁻¹
  kon: 2.2e+06 M⁻¹ s⁻¹
[5]
  Kd: 0.505 nM
